Test results from the supplement of paper PMC9170038.

Tested on: MS2 coat protein
Test: apparent KD of MS2 coat protein; designed switch direction (-1 OFF switch, 1 ON switch): -1; higher = weaker reporter binding
How it was run: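 Designed RNA switches with common flanks were made on Illumina chips by stalled E. coli RNA polymerase. Titration with SNAP-549-labelled MS2 coat protein doubled from 0.7 or 1.5 nM up to 3 µM. Apparent KD is each design's median over clusters after curve-fitting normalised fluorescence.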

[1] = Eterna round: R95, input ligand: FMN 200 uM
[2] = Eterna round: R95, input ligand: microRNA oligo, concentration not stated
[3] = Eterna round: R95, input ligand: none
[4] = input ligand: microRNA oligo, concentration not stated

Sequence: GCCUCACUUGAGGAUCACCCAAGUCAGGAUAUCUACAAGCCGACCAUACCGGCUUGCAAGAGAAGGGACUCUAA [Esonreti] (Eterna round: R97, puzzle: Exclusion 1)
- apparent KD of MS2 coat protein (input ligand: FMN 200 uM): 246 nM
- apparent KD of MS2 coat protein (input ligand: none): 31.8 nM

Sequence: CGAGCUAGUGUGAGGAUAUACCUAUGGAUACAUAGGUAGAAGGCACAUGAGGAUCACCCAUGUCCUAUAGCUCG [jl-bmx4-4.56] (Eterna round: R97, puzzle: Brourd's mod of Exclusion 4)
- apparent KD of MS2 coat protein (input ligand: FMN 200 uM): 499 nM
- apparent KD of MS2 coat protein (input ligand: none): 177 nM

Sequence: CGCCUGGGAGGAUAUCCAAUAUAUGACAUGAGGAUCACCCAUGUUUCCACUCGUACCUCCGGAGAAGGCCCGGCGU [Ex5 #31] (Eterna round: R97, puzzle: Exclusion 5)
- apparent KD of MS2 coat protein (input ligand: FMN 200 uM): 21.7 nM
- apparent KD of MS2 coat protein (input ligand: none): 26.7 nM

Sequence: CGGGCAGCAGGAUAUACAUAGGUCAACAGAAAUGAGUAUUGACAUGAGGAUCACCCAUGUAGAAGGGCUGUACC [Eternabot (L2) Solution 96] (Eterna round: R97, puzzle: Exclusion 2)
- apparent KD of MS2 coat protein (input ligand: FMN 200 uM): 412 nM
- apparent KD of MS2 coat protein (input ligand: none): 391 nM

Sequence: GCAUUGAGUGUGAGGAUAUGCUGGUCCUUGGAUCAGCAGAAGGCACAUGAGGAUCACCCAUGUGAAAACAAUGC [JL bmx4 3.12] (puzzle: Brourd's mod of Exclusion 4)
- apparent KD of MS2 coat protein [1]: 125 nM
- apparent KD of MS2 coat protein [2]: 19.2 nM
- apparent KD of MS2 coat protein [3]: 20.3 nM

Sequence: AAGUACCGUCACGAUAGUGAUGGUACAACAAGUAUGUGAACAUGAGGAUCACCCAUGUCCUCUUUUGCUCGUCUUAU [Sensor 3 - 89] (puzzle: Sensor v3, turn-off variant 2)
- apparent KD of MS2 coat protein [1]: 313 nM
- apparent KD of MS2 coat protein [2]: 22.3 nM
- apparent KD of MS2 coat protein [3]: 309 nM

Sequence: GAGUGACAUGAGGAUCACCCAUGUGAGGAUAUCGGACGGACCAAAUUAACAAUAGAAGCGAGAAGGCACAUAAG [Exclusion 1 V11] (puzzle: Exclusion 1)
- apparent KD of MS2 coat protein [1]: 72.4 nM
- apparent KD of MS2 coat protein [2]: 74.3 nM
- apparent KD of MS2 coat protein [3]: 81.3 nM

Sequence: CUAAAUCAUGUAGGAUAUGCGUGGCGAAGCUAUGCAGAAGGACAUGAGGAUCACCCAUGUGCUUCCGUCUGCGUACAGACGGAA [JL ENG1 1.17] (Eterna round: R96, puzzle: Exclusion NG 1)
- apparent KD of MS2 coat protein (input ligand: FMN 200 uM): 328 nM
- apparent KD of MS2 coat protein [4]: 222 nM
- apparent KD of MS2 coat protein (input ligand: none): 255 nM

Sequence: CCUCCACAUGAGGAUCACCCAUGUCAGGAUAUCGUGUGUUUUUUUUCGGUCUUUCGUGCGAGAAGGGACGUCUU (puzzle: Exclusion 1)
- apparent KD of MS2 coat protein [2]: 30.8 nM

Sequence: AAUGCAAGCAAGAUCCUAAACAUGAGGAUCACCCAUGUGCUCGUCUUAUAAAGUACUAUCACGAAAGUGAUAGUACA [Sensor 3, v1 - 64] (puzzle: Sensor v3, turn-off variant 1)
- apparent KD of MS2 coat protein [1]: 515 nM
- apparent KD of MS2 coat protein [2]: 132 nM
- apparent KD of MS2 coat protein [3]: 744 nM

Sequence: UUAUUAUAUGUAGGAUAUGCAUAUUAUUAUUAUGCAGAAGGACAUGAGGAUCACCCAUGUAUAUUAUUAUUAUAUAUUAUAUGU [Title] (Eterna round: R96, puzzle: Exclusion NG 1)
- apparent KD of MS2 coat protein [4]: 33.8 nM

Sequence: CUUUUGUGAGGAUAUCAGUAGUAAAAAAAUAAAAUUUCUACUGAGAAGGCACAUGAGGAUCACCCAUGUUCCUC [salish99_ex4_r3_026] (puzzle: Exclusion 4)
- apparent KD of MS2 coat protein [2]: 34.5 nM

Sequence: UAUAAACAUGAGGAUCACCCAUGUGAGGAUAUCAAAACCAGAGCGGAUCUCUGGCCCAUGAGAAGGUGCAUGGU [ElNandoxlusion 8 - Jieux - Exclusion 1] (Eterna round: R97, puzzle: Exclusion 1)
- apparent KD of MS2 coat protein (input ligand: FMN 200 uM): 137 nM
- apparent KD of MS2 coat protein (input ligand: none): 26.2 nM

Sequence: CUUUACAAGCUAAGAUCCUACAUGAGGAUCACCCAUGUGGUCCGGUGACGUGAGUCACCGGACUUAGCUCGUCUUGG [salish99_S_TOV1_R5_095] (Eterna round: R97, puzzle: Sensor, turn-off variant 1)
- apparent KD of MS2 coat protein (input ligand: FMN 200 uM): 30.1 nM
- apparent KD of MS2 coat protein (input ligand: none): 32.2 nM

Sequence: AAUAAUAAGGAGGAUAUCGUAUCGGAGACGAUACGAGAAGGCUUAACAUGAGGAUCACCCAUGUUCCUCAAUAA [Mat - Exclusion 6 - Eli Mod - D89] (puzzle: Exclusion 6)
- apparent KD of MS2 coat protein [2]: 35.2 nM

Sequence: ACUCAGUGAGGAUAUCGCCAAAGAGCCGUAACGGCCUUUGAUGAGAAGGCACAUGAGGAUCACCCAUGUAAGCA [EX4 C.1] (Eterna round: R97, puzzle: Exclusion 4)
- apparent KD of MS2 coat protein (input ligand: FMN 200 uM): 387 nM
- apparent KD of MS2 coat protein (input ligand: none): 122 nM

Sequence: AGUUGGCGAGGAUAUACAUGAGGAUCACCCAUGUGAGAGAAUAAAGUGAGAAAGAAAAGUAGAAGGCGCUGACG [Mat - Exclusion 3 - Mod of Salish D50] (puzzle: Exclusion 3)
- apparent KD of MS2 coat protein [1]: 82.8 nM
- apparent KD of MS2 coat protein [2]: 62.7 nM
- apparent KD of MS2 coat protein [3]: 41.4 nM

Sequence: AAAUUAGCAAGUAGAUCCGACAUGAGGAUCACCCAUGUUAUCUGAAAGAACGCAGCAUAAUUGUGAGCUCGUCUAAA [Sensor-V1 #4] (Eterna round: R97, puzzle: Sensor, turn-off variant 1)
- apparent KD of MS2 coat protein (input ligand: FMN 200 uM): 93.7 nM
- apparent KD of MS2 coat protein (input ligand: none): 91.5 nM

Sequence: GAAAAGGUAGGAUAUACGAAAAAAAAGGGUAGGAAAAAAACACAUGAGGAUCACCCAUGUAGAAGGACCAAAAG [salish99_ex2_r3_024] (puzzle: Exclusion 2)
- apparent KD of MS2 coat protein [1]: 61.7 nM
- apparent KD of MS2 coat protein [2]: 21.8 nM
- apparent KD of MS2 coat protein [3]: 19.8 nM

Sequence: UUGGAACGAGGAUAUCGAUGGUGGAACAUGAGGAUCACCCAUGUAUGAGAUAGUGUAGUUCGAGAAGGCGUUAAGU [JR_E5_Sub054] (puzzle: Exclusion 5)
- apparent KD of MS2 coat protein [1]: 24.1 nM
- apparent KD of MS2 coat protein [2]: 40.3 nM
- apparent KD of MS2 coat protein [3]: 48.9 nM

Sequence: AAAUAACAAGCAAGAUCCUACAUGAGGAUCACCCAUGUGCUCGUCUUAAUAAGUACUAUCACGAAAGUGAUAGUACA [Mat - Sensor v3 - turn-off var 1 - Eli Mod - D60] (puzzle: Sensor v3, turn-off variant 1)
- apparent KD of MS2 coat protein [1]: 383 nM
- apparent KD of MS2 coat protein [2]: 383 nM
- apparent KD of MS2 coat protein [3]: 437 nM

Sequence: UUUUGGCAAGCGAGAUCCGACAUGAGGAUCACCCAUGUGCGGGCCCGAAAAGGGCCCGCGGUUGCUCGUCUUGUGUG [free energy optimized] (Eterna round: R97, puzzle: Sensor, turn-off variant 1)
- apparent KD of MS2 coat protein (input ligand: FMN 200 uM): 15.7 nM
- apparent KD of MS2 coat protein (input ligand: none): 16.9 nM

Sequence: GACGUGUUAGGAUAUAGCUCUCGGGACAGCAAUGAUCCGAGUUAGAAGGAACAUGAGGAUCACCCAUGUUAUUU [Eternabot (L2) Solution 60] (Eterna round: R97, puzzle: Exclusion 4)
- apparent KD of MS2 coat protein (input ligand: FMN 200 uM): 18.4 nM
- apparent KD of MS2 coat protein (input ligand: none): 21.1 nM

Sequence: GCCGAAAAUGUGAGGAUAUACCUAUGGAUACAUAGGUAGAAGGCACAUGAGGAUCACCCAUGUCUAAUAACGGC [Eli bmx4 4.26] (Eterna round: R97, puzzle: Brourd's mod of Exclusion 4)
- apparent KD of MS2 coat protein (input ligand: FMN 200 uM): 521 nM
- apparent KD of MS2 coat protein (input ligand: none): 212 nM

Sequence: UGCUACGGAGGAUAUACAUGAGGAUCACCCAUGUGAUAGAUUAUCGCGAGAGCGUAAUGUAGAAGGCCGUAGCU [jl-ex3-4.12 jl mod] (Eterna round: R97, puzzle: Exclusion 3)
- apparent KD of MS2 coat protein (input ligand: FMN 200 uM): 506 nM
- apparent KD of MS2 coat protein (input ligand: none): 56 nM

Sequence: UUUUAACAUGAGGAUCACCCAUGUGAGGAUAUCGAAAUUUAUAUUAAUAUUUAUAAUUCGAGAAGGCACAUUUU [JMF 53] (puzzle: Exclusion 1)
- apparent KD of MS2 coat protein [2]: 155 nM

Sequence: CGUGACUAAGGAUAUACAUGAGGAUCACCCAUGUGAUUCAAGAUUUUCGACUGGAGAGGUAGAAGGUGGAUGCC [Eternabot (L1) Solution 99] (Eterna round: R97, puzzle: Exclusion 3)
- apparent KD of MS2 coat protein (input ligand: FMN 200 uM): 63.3 nM
- apparent KD of MS2 coat protein (input ligand: none): 94.4 nM

Sequence: ACGUAUAGAGGAUAUAGUGAAUAUUACAUGAGGAUCACCCAUGUUCUUCAAAGCAUAUUCCUAGAAGGCUGAUGAA [EX-5 Malc#13] (puzzle: Exclusion 5)
- apparent KD of MS2 coat protein [2]: 47.5 nM

Sequence: CACGGACGAUAAGGAUAUGUUAUAGCUCAAACAGCAGAAGGUGUUAAACCACCGUCACAUGAGGAUCACCCAUGUGUGACAGUU [Eternabot solution 34] (Eterna round: R96, puzzle: Exclusion NG 1)
- apparent KD of MS2 coat protein (input ligand: FMN 200 uM): 46.5 nM
- apparent KD of MS2 coat protein [4]: 30.7 nM
- apparent KD of MS2 coat protein (input ligand: none): 40.3 nM

Sequence: CAGAAUUGAGGAUAUGAUCAAUUUAACAUGAGGAUCACCCAUGUAUGGGAAUGAUUCUGAUCAGAAGGCGAUUCUU [Exclusion 5: 1:a] (Eterna round: R96, puzzle: Exclusion 5)
- apparent KD of MS2 coat protein (input ligand: FMN 200 uM): 960 nM
- apparent KD of MS2 coat protein [4]: 511 nM
- apparent KD of MS2 coat protein (input ligand: none): 633 nM

Sequence: UAUUAGCAAGCGAGAUCCUACAUGAGGAUCACCCAUGUGCUCGUCUUAUAAGGUACUGUGACGAAAGUCACGGUACC [Eli 91 v36] (Eterna round: R97, puzzle: Sensor, turn-off variant 1)
- apparent KD of MS2 coat protein (input ligand: FMN 200 uM): 18.2 nM
- apparent KD of MS2 coat protein (input ligand: none): 27.5 nM

Sequence: UUUUUCGAACAAGCUUCGAACAUGAGGAUCACCCAUGUAGGUAGAUUUGAGUAGGUUUGGAAGUAAGCUCGUCUUAU [JR_SV3TOV1_Sub081] (puzzle: Sensor v3, turn-off variant 1)
- apparent KD of MS2 coat protein [1]: 416 nM
- apparent KD of MS2 coat protein [2]: 561 nM
- apparent KD of MS2 coat protein [3]: 592 nM

Sequence: UUUAAGGGAAUUAAGAUCACAUGAGGAUCACCCAUGUAUAUAUAGGAUAUCAGCUCGUGUAGAGCUGAGAAGGAUAUAUACAUA [ExNG3/6-A3] (Eterna round: R96, puzzle: Exclusion NG 3)
- apparent KD of MS2 coat protein (input ligand: FMN 200 uM): 101 nM
- apparent KD of MS2 coat protein [4]: 32.8 nM
- apparent KD of MS2 coat protein (input ligand: none): 132 nM

Sequence: AUCAUGUAAGGAUAUCUGACAUGUGACGAAAGUCACUGUUCAGAGAAGGUACAUGAGGAUCACCCAUGUAGAAC [Ex4-3: 43] (puzzle: Exclusion 4)
- apparent KD of MS2 coat protein [2]: 62.8 nM

Sequence: CGGCAUGUCUGAGGAUAUCUGCACGAUUAGUGCAGAGAAGGCAGAACAUGAGGAUCACCCAUGUAGAUCAUUAACCGAUUAAUU [ENG1/7-A1] (Eterna round: R96, puzzle: Exclusion NG 1)
- apparent KD of MS2 coat protein (input ligand: FMN 200 uM): 275 nM
- apparent KD of MS2 coat protein [4]: 127 nM
- apparent KD of MS2 coat protein (input ligand: none): 194 nM
